Reference: US12359192B2, “Methods and compositions for display of macrocyclic peptides” (University of Rochester, priority 2013, dated 2025)
Numbered stars: 1 amine (or outer) side, 2 acyl side, 3 side chain; on linkers, the order of the positions; unused ones are H or OH. Bridge positions count the residues as written; N and C are the ends. Peptide text beside a SMILES is read from it. * marks the point of attachment. CH2CH2 = C(C[*:2])[*:1]; Propargyl = C#CC*

Legend:
[1] = molecular target: T1, streptavidin (Streptomyces avidinii, UniProt P22629); test: in-solution inhibition (competitive binding) assay for streptavidin binding affinity; settings: versus cyclo[S(OpgY)[…]]
T1 construct: purchased Sigma-Aldrich
T1 sequence (P22629 25-183, species assumed): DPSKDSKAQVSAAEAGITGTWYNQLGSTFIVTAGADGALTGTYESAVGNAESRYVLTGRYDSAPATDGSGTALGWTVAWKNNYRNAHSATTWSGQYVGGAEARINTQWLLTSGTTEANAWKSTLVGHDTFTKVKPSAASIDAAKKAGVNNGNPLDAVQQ
Description: Then, a fixed amount of streptavidin-horseradish peroxidase conjugate is added to the plate in the presence of varying amount of the bicyclic or cyclic peptide.

[2] = molecular target: T2, Keap1 Kelch domain (KKD) (Homo sapiens, UniProt Q14145); test: direct binding assay with plate-immobilized Keap1 Kelch domain (KKD) and HRP-conjugated anti-FLAG antibody; settings: linear version, O2beY substituted with OpgY
T2 construct: poly-His tag with TEV protease cleavable linker (N)
T2 sequence (Q14145 321-609 limits assumed): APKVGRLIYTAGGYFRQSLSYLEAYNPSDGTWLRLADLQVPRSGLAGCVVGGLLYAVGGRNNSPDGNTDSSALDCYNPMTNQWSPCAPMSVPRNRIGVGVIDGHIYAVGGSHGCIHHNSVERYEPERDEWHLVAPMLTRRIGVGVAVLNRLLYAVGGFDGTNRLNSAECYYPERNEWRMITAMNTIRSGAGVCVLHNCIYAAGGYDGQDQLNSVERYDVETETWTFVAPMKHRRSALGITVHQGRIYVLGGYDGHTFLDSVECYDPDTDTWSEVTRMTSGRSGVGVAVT
Description: FIG. 46A-FIG. 46C depict the selection of macrocyclic peptide inhibitors of the Keap1/Nrf2 interaction using methods disclosed herein. […] KD values correspond to the FLAG-tagged CBD-fused peptide macrocycles. FIG. 46B depicts binding curves for selected macrocyclic peptides as determined using a direct binding assay with plate-immobilized KKD and HRP-conjugated anti-FLAG antibody for detection of the bound peptide.
FIG. 47A-FIG. 47B depicts the selection of Keap1 binding macrocyclic peptides from a naïve macrocyclic peptide phage display library. […] FIG. 47B depicts the binding curves binding curves for selected macrocyclic peptides as determined using a direct binding assay with plate-immobilized KKD and HRP-conjugated anti-FLAG antibody for detection of the bound peptide.
The macrocyclic peptide phage display system of FIG. 43 was further applied to discover macrocyclic peptides capable of targeting a biomedically relevant protein-protein interaction such as the interaction between the Kelch-like ECH-associated protein 1 (Keap1) and transcriptional regulator Nrf2. […] The purified FLAG-tagged cyclic peptides were then tested for their ability to bind the Keap1 Kelch domain (KKD) using an in vitro assay, in which peptide binding to plate-immobilized KKD is detected using a HRP-conjugated anti-FLAG antibody (FIG. 46B). […]

[3] = molecular target: T3, Keap1 Kelch Domain (KDD) (Homo sapiens, UniProt Q14145); test: KD (nM)
T3 construct: poly-His tag with TEV protease cleavable linker (N)
Description: Table printed on a drawing sheet, FIG. 47A
Head of the field: KD (nM)
The patent's description of the figure: FIG. 47A-FIG. 47B depicts the selection of Keap1 binding macrocyclic peptides from a naïve macrocyclic peptide phage display library. FIG. 47A depicts the naïve library of i/i+6-linked macrocyclic peptides (X=NNK; Y*=O2beY) and the sequences and binding affinity for selected macrocyclic Keap1-binding peptides isolated after panning the macrocyclic peptide display library against immobilized Keap1 Kelch Domain (KDD). FIG. 47B depicts the binding curves binding curves for selected macrocyclic peptides as determined using a direct binding assay with plate-immobilized KKD and HRP-conjugated anti-FLAG antibody for detection of the bound peptide.
First copying reader's note: Residue columns have no printed head; a drawn thioether linker joins Y* (first residue) and C (last residue), and the KD cells hold value ± error for binding to the Keap1 Kelch Domain (KKD).
Where the first naming reader finds the target: description_of_the_figure: isolated after panning the macrocyclic peptide display library against immobilized Keap1 Kelch Domain (KDD)

[4] = molecular target: T1, streptavidin; test: direct binding assay with plate-immobilized streptavidin and HRP-conjugated anti-FLAG antibody; settings: CBD alone (tag control)
Description: FIG. 45A-FIG. 45C depict the affinity selection of streptavidin binding peptide macrocycles using methods disclosed herein. […] KD values correspond to the corresponding FLAG-macrocycle-CBD constructs in purified form. FIG. 45B depicts binding curves for selected peptide macrocycle hits as determined using a direct binding assay with plate-immobilized streptavidin and HRP-conjugated anti-FLAG antibody for detection of the bound peptide. […] FIG. 45D depicts phage enrichment over the four rounds of affinity selection and amplification as determined via the phage titer assay.
Studies were performed to assess the functionality of the phage display-based strategy for functional selection of thioether-linked macrocyclic peptides (FIG. 43) that can bind to a target protein. […] To this end, three peptide sequences from the ‘-GD’ family and two from the ‘-FD’ family, respectively, were subcloned into a pET22 vector for expression of the corresponding macrocyclic peptides fused to a N-terminal FLAG tag and a C-terminal chitin binding domain (CBD) and poly-histidine tag to facilitate purification and quantification. […]
Binding Assays. […] Equilibrium dissociation constants (KD) were determined by fitting the dose-response curves to a 1:1 binding isotherm equation via nonlinear regression using SigmaPlot. Mean values and standard deviations were calculated from experiments performed in triplicate.

For `CC(C)[C@@H]1NC(=O)[C@H](CC(N)=O)NC(=O)[C@H]([C@@H](C)O)NC(=O)[C@@H]2Cc3ccc(cc3)OCCSC[C@H](NC(=O)[C@H](Cc3ccccc3)NC(=O)[C@H](CCC(N)=O)NC(=O)[C@@H]3CCCN3C(=O)[C@H](Cc3c[nH]cn3)NC1=O)C(=O)N[C@@H](CC(N)=O)C(=O)N[C@@H](C)C(=O)N[C@@H](CS)C(=O)N2` [cStrep3(C)—Z8C(p-2beF)] (cyclo(ACYTNVHPQFCN); linker 3-11 via CH2CH2), the “increase in streptavidin binding affinity as compared to the monocyclic counterpart” value [1] was greater than 2 fold.

For `C#CCOc1ccc(C[C@H](N)C(=O)N[C@@H](CC(=O)O)C(=O)N[C@@H](CO)C(=O)N[C@@H](CCC(=O)O)C(=O)N[C@H](C(=O)NCC(=O)N[C@@H](CCC(=O)O)C(=O)N[C@@H](CS)C(=O)O)[C@@H](C)O)cc1` [linear version of KKD-m1] (H-Y(Propargyl)DSETGEC-OH; N-terminus and C-terminus assumed), the “lower affinity for Keap1 relative to KKD-m1” value [2] was “five-fold lower affinity”.

“Y* D A E T G E C (YDAETGEC; not fully specified; modified tyrosine Y*; KKD(6X)-m2) [SEQ ID NO: 251 | KKD(6X)-m2]” showed a Kd [3] of 40 ± 13 nM.

Molecule “Y* D I E T G E C (YDIETGEC; not fully specified; modified tyrosine Y*; KKD(6X)-m1) [SEQ ID NO: 250 | KKD(6X)-m1]” has a Kd [3] of 43 ± 14 nM.

B1: CBD: chitin binding domain tag alone (protein)
chain: MKIEEGKLTNPGVSAWQVNTAYTAGQLVTYNGKTYKCLQPHTSLAGWEPSNVPALWQLQNNGNNGLELRHG
B1 was tested, and the binding to streptavidin [4] was “no detectable binding”.
